Experimental findings from IntAct's records for PubMed 28424519 are described below.

The target of this experiment is snf2_yeast SNF2 (UniProt P22082).
Chain of UniProt P22082 (P22082 whole entry): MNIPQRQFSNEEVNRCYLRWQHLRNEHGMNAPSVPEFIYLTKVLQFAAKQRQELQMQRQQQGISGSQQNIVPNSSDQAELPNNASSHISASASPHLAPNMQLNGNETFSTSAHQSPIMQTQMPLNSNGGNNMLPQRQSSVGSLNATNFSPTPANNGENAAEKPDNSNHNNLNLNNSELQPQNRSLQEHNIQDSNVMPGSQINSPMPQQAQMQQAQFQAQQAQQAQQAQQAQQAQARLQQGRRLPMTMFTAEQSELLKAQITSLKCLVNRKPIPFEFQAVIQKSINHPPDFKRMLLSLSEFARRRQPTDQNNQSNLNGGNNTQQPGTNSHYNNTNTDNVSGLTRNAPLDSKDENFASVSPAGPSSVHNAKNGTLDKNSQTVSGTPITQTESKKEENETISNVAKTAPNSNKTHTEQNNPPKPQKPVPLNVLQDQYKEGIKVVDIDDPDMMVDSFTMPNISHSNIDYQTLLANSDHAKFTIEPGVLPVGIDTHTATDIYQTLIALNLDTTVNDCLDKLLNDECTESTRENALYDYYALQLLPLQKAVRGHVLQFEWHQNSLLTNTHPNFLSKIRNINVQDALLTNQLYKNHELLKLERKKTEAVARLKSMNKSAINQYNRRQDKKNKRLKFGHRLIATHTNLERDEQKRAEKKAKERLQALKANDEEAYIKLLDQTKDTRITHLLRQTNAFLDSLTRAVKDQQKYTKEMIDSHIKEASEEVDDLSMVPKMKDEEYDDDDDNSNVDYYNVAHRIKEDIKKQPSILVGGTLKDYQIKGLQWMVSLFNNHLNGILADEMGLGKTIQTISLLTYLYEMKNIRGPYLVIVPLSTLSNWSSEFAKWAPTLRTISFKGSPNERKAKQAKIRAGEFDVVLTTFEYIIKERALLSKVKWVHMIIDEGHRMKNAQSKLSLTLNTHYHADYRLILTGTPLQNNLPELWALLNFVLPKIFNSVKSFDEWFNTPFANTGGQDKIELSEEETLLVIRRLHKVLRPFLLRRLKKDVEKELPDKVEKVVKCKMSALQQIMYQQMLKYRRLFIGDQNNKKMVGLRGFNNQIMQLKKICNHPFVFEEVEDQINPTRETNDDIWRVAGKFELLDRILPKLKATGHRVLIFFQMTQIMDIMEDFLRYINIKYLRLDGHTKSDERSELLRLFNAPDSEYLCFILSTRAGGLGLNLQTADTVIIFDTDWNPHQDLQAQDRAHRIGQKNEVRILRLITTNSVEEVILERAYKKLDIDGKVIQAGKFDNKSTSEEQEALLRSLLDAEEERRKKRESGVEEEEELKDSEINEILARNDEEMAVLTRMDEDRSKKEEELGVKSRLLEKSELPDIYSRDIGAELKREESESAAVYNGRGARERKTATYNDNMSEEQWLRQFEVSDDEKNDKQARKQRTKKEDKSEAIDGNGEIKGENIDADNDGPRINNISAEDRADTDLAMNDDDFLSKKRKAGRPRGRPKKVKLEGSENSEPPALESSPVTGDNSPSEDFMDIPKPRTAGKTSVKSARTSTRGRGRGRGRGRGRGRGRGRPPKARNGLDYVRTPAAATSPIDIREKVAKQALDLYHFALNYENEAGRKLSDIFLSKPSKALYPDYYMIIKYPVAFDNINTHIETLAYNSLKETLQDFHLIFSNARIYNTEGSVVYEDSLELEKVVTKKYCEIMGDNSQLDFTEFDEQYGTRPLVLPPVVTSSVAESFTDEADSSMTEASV

As to “Histone H4 (Saccharomyces cerevisiae) (from UniProt P02309) R18A”, the “effect of a mutation on the interaction” value is on record as “decreasing interaction”.
Regarding “Histone H4 (Saccharomyces cerevisiae) (from UniProt P02309) R20A”, the “effect of a mutation on the interaction” value is reported as “decreasing interaction”.
In the case of “Histone H4 (Saccharomyces cerevisiae) (from UniProt P02309) K17A;R18A;R20A”, the “effect of a mutation on the interaction” value is “decreasing interaction”.
As for “Histone H4 (Saccharomyces cerevisiae) (from UniProt P02309) K17A”, the “effect of a mutation on the interaction” value is listed as “decreasing interaction”.
